Experimental findings from patent publication US20230212305A1 (published 2023) are described below.

The target of assay [1] is T1, human ABCG2 (human, UniProt Q9UNQ0 1-655).
T1 construct: also called hG2; KPG2
T1 sequence: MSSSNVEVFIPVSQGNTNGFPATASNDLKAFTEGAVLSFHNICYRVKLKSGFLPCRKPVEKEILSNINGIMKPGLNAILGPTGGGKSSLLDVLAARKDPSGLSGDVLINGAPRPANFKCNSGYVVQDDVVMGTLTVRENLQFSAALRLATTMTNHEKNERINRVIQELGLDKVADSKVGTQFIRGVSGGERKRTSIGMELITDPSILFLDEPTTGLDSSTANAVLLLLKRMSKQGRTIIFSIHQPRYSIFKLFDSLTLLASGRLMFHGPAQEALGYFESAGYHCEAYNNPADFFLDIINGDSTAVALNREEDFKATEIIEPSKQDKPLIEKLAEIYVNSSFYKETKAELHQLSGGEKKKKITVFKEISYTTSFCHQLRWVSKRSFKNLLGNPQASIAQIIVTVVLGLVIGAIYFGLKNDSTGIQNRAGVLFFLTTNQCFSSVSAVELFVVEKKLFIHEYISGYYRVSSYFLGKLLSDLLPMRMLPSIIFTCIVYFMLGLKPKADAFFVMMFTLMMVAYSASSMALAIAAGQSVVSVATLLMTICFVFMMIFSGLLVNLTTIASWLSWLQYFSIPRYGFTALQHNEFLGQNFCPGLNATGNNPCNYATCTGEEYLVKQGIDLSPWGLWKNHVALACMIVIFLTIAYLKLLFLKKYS
Description: flow cytometry, 293T cells overexpressing human ABCG2. Background: A flow cytometer gives signals particle by particle.
Description: (§1) Cell Binding Assays. Antibody binding to cells was evaluated by flow cytometry. […] After incubating cells on ice for 30 min, cells were washed twice with flow cytometry buffer. Bound antibody was detected with PE-labeled F(ab′)₂ fragment goat anti-human IgG (Jackson ImmunoResearch) and evaluated on an Attune NxT flow cytometer.

Assay [2] deals with T2, cynomolgus ABCG2 (Macaca fascicularis) (Macaca fascicularis (cynomolgus), UniProt Q5MB13 1-654 (rhesus entry)).
T2 construct: also called cABCG2
T2 sequence: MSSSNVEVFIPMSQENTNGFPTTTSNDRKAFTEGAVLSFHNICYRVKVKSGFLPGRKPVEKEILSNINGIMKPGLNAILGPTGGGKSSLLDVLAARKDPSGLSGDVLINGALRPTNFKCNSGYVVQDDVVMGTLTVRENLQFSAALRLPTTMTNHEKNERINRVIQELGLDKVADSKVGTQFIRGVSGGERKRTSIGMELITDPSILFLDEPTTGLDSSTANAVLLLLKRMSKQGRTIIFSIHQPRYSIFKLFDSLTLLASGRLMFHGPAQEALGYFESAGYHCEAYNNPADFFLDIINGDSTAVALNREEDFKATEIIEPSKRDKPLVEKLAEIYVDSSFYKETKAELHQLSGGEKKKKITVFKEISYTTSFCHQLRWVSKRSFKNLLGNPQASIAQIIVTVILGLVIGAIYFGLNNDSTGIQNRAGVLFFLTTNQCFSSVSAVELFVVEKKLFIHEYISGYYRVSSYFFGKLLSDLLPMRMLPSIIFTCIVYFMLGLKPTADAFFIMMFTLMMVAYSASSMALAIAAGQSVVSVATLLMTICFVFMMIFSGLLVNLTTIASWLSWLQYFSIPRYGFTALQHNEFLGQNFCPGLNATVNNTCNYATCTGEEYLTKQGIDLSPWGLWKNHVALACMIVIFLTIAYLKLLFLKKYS
Description: flow cytometry, 293T cells overexpressing cynomolgus ABCG2.
Description: as §1

The target of assay [3] is T1, human ABCG2. Description: flow cytometry titration on 293T_ABCG2_OX cells; column Affinity for human ABCG2 (nM).
Description: as §1
Assay [4] has as its target T2, cynomolgus ABCG2 (Macaca fascicularis). Briefly: flow cytometry on cells expressing cynomolgus ABCG2; paragraph 395: non-significant binding = -.
Description: as §1
Assay [5] has as its target T1, human ABCG2. Briefly: cell-based or functional assay.
In assay [6] the target is T2, cynomolgus ABCG2 (Macaca fascicularis). Description: flow cytometry on cells expressing cynomolgus ABCG2.
Description: as §1

B1: G2.760 rat (antibody, human IgG1, V domains shown)
VH: EVQLVESGGGLVQPGRSMKLSCAASGFTFSKSDMAWVRQAPTKGLKWVASIRYDGGNTYYRDSVRGRFTISRDNAKSTLYLQMDSLRSEDTATYYCSTAKAAISTPSYYVLDAWGQGASVTVSS
VL: DIGMTQSPTSMSKSVGDRVTMNCKASQNVGSNVDWFQQKTGQSPKLLIYKSSNRYTGVPARFTGSGSGTDFTFTISNMQAEDLAVYYCMQSNSYPPTFGGGTKLELK
As to B1, the binding result in assay [1] and in assay [2] was “binds” throughout.

B2: G2.173 Humanized 3 (antibody, human IgG1, V domains shown)
VH: EVQLVQSGAEVKKPGASVKVSCKASGFNIKDDYVHWVRQAPGQGLEWIGRIDPASGNTRYAPKFRGRATMTADTSISTAYMELSRLRSDDTAVYYCSPPLWVGGFAYWGQGTLVTVSS
VL: DVVMTQSPLSLPVTLGQPASISCRSSQSLVHSDVNTYLHWYQQRPGQSPRLLIYKVSNRFSGVPDRFSGSGSGTDFTLKISRVEAEDVGVYFCSQTTHVPYTFGGGTKLEIK
For B2, binding in assay [3] was put at a Kd of 44 nM. The binding result in assay [4] is listed as “no binding”.

B3: G2.255 mouse (antibody, human IgG1, V domains shown)
VH: EVMLVESGGALVKPGGSLKLSCAASGFTFSNNAMSWVRQTPETRLEWVATITGGGSYTYYPDSVKGRFTISRDNARNTLYLQMSSLRSEDTATYYCASPDGNYEGVLAYWGQGTLVTVSA
VL: DIQMNQSPSSLSASLGDRVTISCSASQGISNYLNWYQQKPDGTIKLLIYYTSTLHSGVPSRFSGSGSGTDYSLTISNLEPEDIATYYCQHYSSLPWTFGGGTKLEIK
notes: Variable regions cloned onto human IgG1 constant heavy chain and human kappa constant light chain
On to B3, for which, in assay [3], the dissociation constant (Kd) (in general, the constant that tells how readily two partners part at equilibrium) is 363 nM. Also, the binding result in assay [4] is “no binding”.

B4: G2.643 mouse (antibody, human IgG1, V domains shown)
VH: VNLVESGPELVKPGTSVKISCKASGYRFTSYYVHWVKQRPGQGLEWIGWIFPGSDNTKYNEKFKGKATLTADTSSSTAYMQLSSLTSEDSAVYFCASIYYGYDGTLYFDYWGQGTSVTVSS
VL: DIVMTQSHTFMSTSVGDRVSVTCKASQNVGNNVAWYQQKPGQSPNALIYSASYRYSGVPDRFTGSGSGTDFTLTISNVQSEDLAEYFCQQYDRYPLTFGGGTKLEIK
notes: Recombinant antibody
With B4, the binding result in assay [1] and in assay [2] was “binds” in each case.

B5: G2.748 rat (antibody, V domains shown)
VH: QVSLKESGPGMLQPSKTLSLTCSFSGFSLSTSGMVVNWIRQPSGKSLEWLAAIDWDGDKYYNPSLKHRLTVSKDTSNTQVVLKITSVDTADTATYYCARSIAPYRGWFGYWGQGTLVTVSS
VL: EIVLIQSPSSLPASLGERVTIICRASQDIGNNLNWYQQKPDGTIKPLIYFTSNFQSGVPSSFSGSRSGTDFSLTISSLEAEDFAMYYCQQDASLPWTFGGGTKLEIK
In the case of B5, the binding result in assay [1] and in assay [2] was “binds” in each case.

B6: G2.629 rat (antibody, human IgG1, V domains shown)
VH: EVQLVESGGGLVQPGRSLKLSCAASGFIFSRFYMAWVRQAPTKGLEWVAYINTGGGTTYYRDSVKGRFTISRDNAKTTLYLQMDSLRSEDTATYYCTTLAAPWNYVMDAWGQGASVTVSS
VL: DVVMTQSPSLLSASVGDRVTLTCKGSQNINNFLAWYQQKLGEAPKLLTYKTNSLHTGIPSRFSGSGSGTDYTLTISSLHSEDLATYYCYQYNNGYTFGPGTKLELK
notes: as for B3
With B6, the “IC50 of topotecan cytotoxicity in the presence of the antibody” value (“IC50 of topotecan cytotoxicity” below) in assay [5] came out at 2.21 nM. Also, the binding result in assay [6] is “binds”. The Kd in assay [3] turned out to be 16.8 nM.

B7: G2.631 rat (antibody, human IgG1, V domains shown)
VH: EVKLLESGGGLVQSGRSLKLSCAASGFIFSRFYMAWVRQAPRKGLEWVAYISNGAGSTYYRESVKGRFIISRDNAKSTLYLQMDSLRSEDTATYYCTTVAAPWNYVMDGWGQGASVTVSS
VL: NIQITQSPSLLSASVGDRVTLSCKGSQNINNYLAWYQQKLGEAPKLLIYKTNSLHTGIPSRFSGSGSGTDYTLTISSLHSEDLATYYCYQYNNGYTFGAGTKLELK
notes: also called G.631
Turning to B7, the “IC50 of topotecan cytotoxicity” value in assay [5] turned out to be 1.42 nM. Further, the dissociation constant Kd in assay [3] stood at 14.2 nM.

B8: G2.636 rat (antibody, human IgG1, V domains shown)
VH: EVKLVESGGGLVQPGRSLKLSCAASGFTFSRFYMAWVRQAPTKGLEWVAHISHGGDTTYYRDSVKGRFTISRDNAKSTLFLQMDSLRSEDTATYYCTTSAAPWNYVMDGWGLGASVTVSS
VL: DIVMTQSPSLLSASVGDRVTLTCKGSQNINNFLAWYQQKLGEAPKLLIYKTNSLHTGIPSRFSGSGSGTDYTLTISSLHSEDLATYYCYQYNNGYTFGAGTKLELK
notes: as for B3
Consider B8, for which the “IC50 of topotecan cytotoxicity” value in assay [5] turned out to be 0.45 nM. For the same molecule, the binding result in assay [6] is “binds”. The affinity in assay [3], expressed as Kd, was 17 nM.

B9: G2.641 rat (antibody, human IgG1, V domains shown)
VH: EVKLEESGGGLVQPGRSLKLSCAASGFTFSRFYMAWVRQAPTKGLEWVAHISHGGDTTYYRDSVKGRFTISRDNAKSTLFLQMDSLRSEDTATYYCTTSAAPWNYVMDGWGLGASVTVSS
VL: DIQMTQSPSLLSASVGDRVTLTCKGSQNINNFLAWYQQKLGEAPKLLIYKTNSLHTGIPSRFSGSGSGTDYTLTISSLHSEDLATYYCYQYNNGYTFGAGTKLELK
notes: as for B3
In the case of B9, in assay [5], the “IC50 of topotecan cytotoxicity” value was determined as 1.04 nM. The binding result in assay [6] is “binds”. For the same molecule, the dissociation constant (Kd) in assay [3] came out at 23 nM.

B10: anti-ABCG2 antibody 5D3 (antibody, V domains shown)
VH: QVQLQESGPGLVKPSQSLSLTCTVTGFSITSDYAWNWIRQFPGKKLEWMGYINFDGGTTYNPSLRGRISITRDTSKNQFFLQLRSVTPEDTATYYCATFYGAKGTLDYWGQGTSVTVSS
VL: DIVLTQSPSSFSVSLGDRVTISCKASGYILNRLAWYQQKPGNAPRLLISGATSLETGFPSRFSGTGSGKDYTLSISSLQTEDVGTYYCQQYWSTPWTFGGGTKLEIK
notes: also called clone 5D3
For B10, the “IC50 of topotecan cytotoxicity” value in assay [5] was determined as 0.3 nM. This molecule came in with a Kd in assay [3] of 5 nM.

B11: G2.247 mouse (antibody, human IgG1, V domains shown)
VH: EVRLQQSGAELVKPGASVKLSCKTSGFTFSNSYISWLKQKPRQSLEWIAWIYAGTGGTNYNQKFTGKAQLTVDTSSSTAYMQLSSLTSEDSAIYYCATYGNFLYAMDNWGQGTSVTVSS
VL: DIVMTQSPASLSASVGETVTITCRASGNIHNYLAWYQQKQGKSPQLLVYNTKTLADGVPSRFSGSGSGTQYSLKINSLQPEDFGSYYCQHFWSTPWTFGGGTKLEIK
notes: as for B3
Turning to B11, the dissociation constant (Kd) in assay [3] came out at 59 nM. Moreover, the binding result in assay [4] is given as “no binding”.

B12: G2.248 mouse (antibody, human IgG1, V domains shown)
VH: QVQLQQPGAELVKPGASVKLSCKTSGFTFSNSYISWLKQKPRQSLEWIAWIYAGTGGTNYNQKFTGKAQLTVDTSSSTAYMQLSSLTSEDSAIYYCATYGNFLYAMDNWGQGTSVTVSS
VL: DIQMKQSPASLSASVGETVTITCRASGNIHNYLAWYQQKQGKSPQLLVYNTKTLADGVPSRFSGSGSGTQYSLKINSLQPEDFGSYYCQHFWSTPWTFGGGTKLEIK
notes: as for B3
For B12, the Kd in assay [3] was 125 nM. Also, the binding result in assay [4] was “no binding”.

B13: G2.252 mouse (antibody, human IgG1, V domains shown)
VH: EVQLQQSGAELVKPGASVKLSCKTSGFTFSNSYISWLKQKPRQSLEWIAWIYAGTGGTNYNQKFTGKAQLTVDTSSSTAYMQLSSLTSEDSAIYYCATYGNFLYAMDYWGQGTTLTVSS
VL: EIVLTQSPASLSASVGETVTITCRASGNIHNYLAWYQQKQGKSPQLLVYNAKTLADGVPSRFSGSGSGTQYSLKINSLQPEDFGSYYCQHFWSTPWTFGGGTKLEIK
notes: as for B3
Regarding B13, the Kd in assay [3] was 347 nM. Besides, the binding result in assay [4] is recorded as “no binding”.

B14: G2.642 rat (antibody, human IgG1, V domains shown)
VH: QIQLVQSGAELVKPGASVKLSCKTSGFTFSSNYISWLRQKPRQSLEWIAWIYSGTGGTYYNQKFTGKAQLTIDTSSNTAYMQLSSLTSEDSAIYYCARHVGLRYWYFDVWGAGTSVTVSS
VL: DIVLTQSPASLTVSLGQRATISCRASESVDSNGNSFMHWYQQKPGQSPKVLIYRASNLESGVPARFSGSGSRTDFTLTINPVEADDVATYYCQQSNEDPWTFGGGTKLEIKR
B14: in assay [5], the “IC50 of topotecan cytotoxicity” value came out at 9.08 nM. In addition, the Kd in assay [3] was found to be 48 nM. Further, the binding result in assay [4] is reported as “no binding”.
